Article PMC3443378 (Molecular Microbiology, 2012)

Tests used:
Assay in all cases: SPR
PrfA S71L/G145S = PrfA S71L/G145S (Listeria monocytogenes P14, UniProt P22262 1-237, S71L;G145S)
PrfA E36Q = PrfA E36Q (Listeria monocytogenes P14, UniProt P22262 1-237, E36Q)
PrfA L48F/G145S = PrfA L48F/G145S (Listeria monocytogenes P14, UniProt P22262 1-237, L48F;G145S)
PrfA Y63W/G145S = PrfA Y63W/G145S (Listeria monocytogenes P14, UniProt P22262 1-237, Y63W;G145S)
PrfA E36R = PrfA E36R (Listeria monocytogenes P14, UniProt P22262 1-237, E36R)
PrfA V80L = PrfA V80L (Listeria monocytogenes P14, UniProt P22262 1-237, V80L)
PrfA L48F = PrfA L48F (Listeria monocytogenes P14, UniProt P22262 1-237, L48F)
PrfA F29M = PrfA F29M (Listeria monocytogenes P14, UniProt P22262 1-237, F29M)
PrfA I69W = PrfA I69W (Listeria monocytogenes P14, UniProt P22262 1-237, I69W)
PrfA*sup G145S/E173G = PrfA*sup G145S/E173G (Listeria monocytogenes P14, UniProt P22262 1-237, G145S;E173G)
PrfA L120V = PrfA L120V (Listeria monocytogenes P14, UniProt P22262 1-237, L120V)
PrfA WT = PrfA WT (Listeria monocytogenes P14, UniProt P22262 1-237)
PrfA Y63W = PrfA Y63W (Listeria monocytogenes P14, UniProt P22262 1-237, Y63W)
PrfA S71L = PrfA S71L (Listeria monocytogenes P14, UniProt P22262 1-237, S71L)

Row | Binder | Kd (PrfA S71L/G145S) | Kd (PrfA E36Q) | Kd (PrfA L48F/G145S) | Kd (PrfA Y63W/G145S) | Kd (PrfA E36R) | Kd (PrfA V80L) | Kd (PrfA L48F) | Kd (PrfA F29M) | Kd (PrfA I69W) | Kd (PrfA*sup G145S/E173G) | Kd (PrfA L120V) | Kd (PrfA WT) | Kd (PrfA Y63W) | Kd (PrfA S71L)
1 | PplcA/hly PrfA box 40-mer (dsDNA) DNA 1: TGTCCCTTTATCGTCGTTAACAAATGTTAATGCCTCGACA DNA 2: TGTCGAGGCATTAACATTTGTTAACGACGATAAAGGGACA | 75 1 | 1360 11 | 15 1 | 9 1 | 1440 13 | 1780 47 | 5260 101 | 288 45 | 347 43 | 10500 317 | 3120 37 | 1100 49 | 1160 86 | 695 42
2 | PactA PrfA box 40-mer (dsDNA) DNA 1: GGTCGGAGTTAACTGATTAACAAATGTTAGAGAAAACTTA DNA 2: TAAGTTTTCTCTAACATTTGTTAATCAGTTAACTCCGACC | 67 1 | 801 67 | 239 60 | 29 1 | 1080 10 | 1400 54 | 20800 262 | 267 15 | 392 76 | 32000 528 | 1590 17 | 1360 24 | 1660 14 | 741 59
